Residue numbers refer to the chain shown, from its start. Each block holds one binder with its values, some of them ahead of it.
Experiments:
TAGT-8 (human) [1] = experiment: BLI (Octet), antigen-Fc on AHC sensor
TAGT-8M (mouse) [2] = experiment: BLI (Octet), antigen-Fc on AHC sensor
TAGT-8 (human) [3] = experiment: BLI (Octet RED96), antigen Fc-His on AHC sensor, Fab in solution
TAGT-8M (mouse) [4] = experiment: as above
TAGT-8H (human) [5] = experiment: BLI (Octet RED96), antigen-Fc on AHC sensor, Fab in solution
TAGT-8M (mouse) [6] = experiment: as above
TAGT-12 (human) [7] = experiment: BLI Octet RED96, antigen-Fc on AHC sensor, Fab analyte
TAGT-12 (human) [8] = experiment: BLI, Octet RED96, antigen-Fc on AHC sensor, Fab in solution
TAGT-12 (human) [9] = experiment: BLI (Octet RED96), antigen Fc-His on AHC sensor, Fab in solution
TAGT-8H (human) [10] = experiment: BLI Octet RED96, antigen-Fc on AHC sensor, Fab analyte
TAGT-8 (human) [11] = experiment: BLI Octet, antigen-Fc on AHC sensor, Fab analyte
TAGT-6 (human) [12] = experiment: BLI Octet RED96, antigen-Fc on AHC sensor, Fab analyte
TAGT-6 (human) [13] = experiment: BLI (Octet), antigen-Fc on AHC sensor
TAGT-6 (human) [14] = experiment: BLI (Octet RED96), antigen-Fc on AHC sensor, Fab in solution
TAGT-12 (human) [15] = experiment: BLI (Octet), antigen-Fc on AHC sensor
TAGT-12 (human) [16] = experiment: BLI (Octet RED96), antigen-Fc on AHC sensor, Fab in solution
TAGT-6 (human) [17] = experiment: BLI (Octet RED96), antigen Fc-His on AHC sensor, Fab in solution
TAGT-6 (human) [18] = experiment: BLI Octet, antigen-Fc on AHC sensor, Fab analyte
TAGT-8 (human) [19] = experiment: BLI, Octet RED96, antigen-Fc on AHC sensor, Fab in solution
TAGT-8H (human) [20] = experiment: BLI (Octet), antigen-Fc captured, Fab in solution

B1: Hit ID 4027 (Fab, V domains shown)
VH: EVQLVESGGGLVQPGGSLRLSCAASGYSITSGHHWNWIRQAPGKGLEWIGWISPSSGGTKYAQKFQGRVTISRDNSKNTLYLQLNSLRAEDTAVYYCARGFDGFHYWGQGTLVTVSS
VL: DIQLTQSPSSLSASVGDRVTITCRASESVDFYGISFLPWYQQKPGKAPKLLIYDASNRATGIPSRFSGSGSGTDFTLTISSLQPEDFATYYCQQSYSWPWTFGQGTKVEIKR
Kd (TAGT-8 (human) [1]): 1.55 nM
Kd (TAGT-8M (mouse) [2]): 3.81 nM
Kd (TAGT-8 (human) [3]): 1.55 nM
Kd (TAGT-8M (mouse) [4]): 3.81 nM
Kd (TAGT-8H (human) [5]): 1.55 nM
Kd (TAGT-8M (mouse) [6]): 3.81 nM

B2: Hit ID 6010 (Fab, V domains shown)
VH: EVQLVESGGGLVQPGGSLRLSCAASGYSISSGHYWNWIRQAPGKGLEWIGWINPNRGDTNYAQKFQGRVTISRDNSKNTLYLQLNSLRAEDTAVYYCARDYYGDFDYWGQGTLVTVSS
VL: DIQLTQSPSSLSASVGDRVTITCRASQSISSYLNWYQQKPGKAPKLLIYDASNLETGVPSRFSGSGSGTDFTLTISSLQPEDFATYYCQHHYGTPLTFGQGTKVEIKR
Kd (TAGT-12 (human) [7]): 28.3 nM
Kd (TAGT-12 (human) [8]): 28.3 nM
Kd (TAGT-12 (human) [9]): 28.3 nM

B3: Hit ID 7040 (Fab, V domains shown)
VH: EVQLVESGGGLVQPGGSLRLSCAASGYSISSGYYWNWIRQAPGKGLEWIGWISPSGGSTNYAQKFQGRVTISRDNSKNTLYLQLNSLRAEDTAVYYCARDLTAGGFDYWGQGTLVTVSS
VL: B2 VL with S28G, N34A, H90Q, H91Y, G93S
Kd (TAGT-8H (human) [10]): 27.2 nM
Kd (TAGT-8 (human) [11]): 27.2 nM
Kd (TAGT-8H (human) [5]): 27.2 nM

B4: Hit ID 7097 (Fab, V domains shown)
VH: EVQLVESGGGLVQPGGSLRLSCAASGYSISSGHHWDWIRQAPGKGLEWVSYISGAGDTTYYADSVKGRFTISRDNSKNTLYLQLNSLRAEDTAVYYCAREGSDAVLGDWFAYWGQGTLVTVSS
VL: B2 VL with S28G, N34A, H90Q, H91Y, G93S
Kd (TAGT-6 (human) [12]): 24.3 nM
Kd (TAGT-6 (human) [13]): 24.3 nM
Kd (TAGT-6 (human) [14]): 24.3 nM

B6: Hit ID 7183 (Fab, V domains shown)
VH: B4 VH with H34Y, D36N, Y51S, A55Y, A104T
VL: B2 VL with L54R, E55A, V58I, H90Q, H91S, G93S, L96P
Kd (TAGT-6 (human) [17]): 14.8 nM
Kd (TAGT-6 (human) [18]): 14.8 nM
Kd (TAGT-6 (human) [14]): 14.8 nM

B8: Hit ID 4036 (Fab, V domains shown)
VH: EVQLVESGGGLVQPGGSLRLSCAASGFSLSTSGVGVGWIRQAPGKGLEWIGEIYHSGSTYYSPSLKSRVTISRDNSKNTLYLQLNSLRAEDTAVYYCARERYGSYYFDYWGQGTLVTVSS
VL: DIQLTQSPSSLSASVGDRVTITCRASQSVDFYGKSFLDWYQQKPGKAPKLLIYDASSLESGVPSRFSGSGSGTDFTLTISSLQPEDFATYYCQQYYRIPPTFGQGTKVEIKR
Kd (TAGT-8H (human) [10]): 3.13 nM
Kd (TAGT-8 (human) [1]): 3.13 nM
Kd (TAGT-8 (human) [19]): 3.13 nM

Now from value to binder:

Kd (TAGT-12 (human) [15]): 11.6 nM
Kd (TAGT-12 (human) [16]): 11.6 nM
B5: Hit ID 5115 (Fab, V domains shown)
VH: EVQLVESGGGLVQPGGSLRLSCAASGYSISSGHYWGWIRQAPGKGLEWIGEIYHSGSTYYSPSLKSRVTISRDNSKNTLYLQLNSLRAEDTAVYYCARESYYAFDYWGQGTLVTVSS
VL: B2 VL with I29V, N34A, D50A, N53T, E55Q, T56S, H90Q, H91Y, G93T

Kd (TAGT-6 (human) [12]): 3.3 nM
Kd (TAGT-6 (human) [13]): 3.3 nM
Kd (TAGT-6 (human) [14]): 3.3 nM
B7: Hit ID 5404 (Fab, V domains shown)
VH: EVQLVESGGGLVQPGGSLRLSCAASGYSISSGYHWAWIRQAPGKGLEWIGEIYHSGSTYYSPSLKSRVTISRDNSKNTLYLQLNSLRAEDTAVYYCARSPYYYGVFDYWGQGTLVTVSS
VL: DIQLTQSPSSLSASVGDRVTITCSASSRVGSVYWYQQKPGKAPKLLIYDASNLETGVPSRFSGSGSGTDFTLTISSLQPEDFATYYCQQYTHDPVTFGQGTKVEIKR

Kd (TAGT-8H (human) [20]): 4.27 nM
Kd (TAGT-8 (human) [3]): 4.27 nM
Kd (TAGT-8 (human) [11]): 4.27 nM
B9: Hit ID 4034 (Fab, V domains shown)
VH: EVQLVESGGGLVQPGGSLRLSCAASGYSISSGHYWNWIRQAPGKGLEWVSSISGYGSTTYYADSVKGRFTISRDNSKNTLYLQLNSLRAEDTAVYYCARERYYGSTDYAFDYWGQGTLVTVSS
VL: DIQLTQSPSSLSASVGDRVTITCSASSRVSHVFWYQQKPGKAPKLLIYAASTLQSGVPSRFSGSGSGTDFTLTISSLQPEDFATYFCLQGTHFPWTFGQGTKVEIKR
